According to PMC2738423:

Assays:
Experiment in all cases: SPR
[1] = molecular target: AglyFc-mut-MBP (aglycosylated, N297A; mouse IgG1 hinge-Fc TT-HN mutant linked via Gly-Ser-Gly-Gly to MBP1–9[4Y]) (mouse | not stated)
[2] = molecular target: wild type (WT) mouse hinge-Fc region (mouse IgG1 derived), no MBP epitope attached (mouse)
[3] = molecular target: Fc-WT-MBP (glycosylated; wild type mouse IgG1 hinge-Fc linked via Gly-Ser-Gly-Gly to MBP1–9[4Y]) (mouse | not stated)
[4] = molecular target: AglyFc-WT-MBP (aglycosylated, N297A; mouse IgG1 hinge-Fc linked via Gly-Ser-Gly-Gly to MBP1–9[4Y]) (mouse | not stated)

- KD of the higher affinity interaction site [1]: 19.8 nM
- KD of the higher affinity interaction site [2]: 188 nM
- KD of the higher affinity interaction site [3]: 212 nM
- KD of the higher affinity interaction site [4]: 170 nM
Substance: Recombinant mouse FcRn (from UniProt Q61559 22-365; P01887 21-119) (receptor)
